Reference: publication PMC4117942 (Genes & Development, 2014)

B1: D. melanogaster Rhino chromodomain (19–85) (domain or fragment)
chain: DHVEEYVVEKILGKRFVNGRPQVLVKWSGFPNENNTWEPLENVGNCMKLVSDFESEVFRLHRKAAAK

Assays:
[1] = target: Rhino chromodomain (23–85) (D. melanogaster) (UniProt Q7JXA8); test: ITC
[2] = target: B1; test: crystal structure
[3] = target: the molecule itself; test: crystal structure

Kd [1] [µM]	Molecule	further results
21.8	H3(1–15)K9me3 peptide (from UniProt P02299 2-16)	–
28.4	H3(1–15)K9me2 peptide (from UniProt P02299 2-16)	–
–	ARTKQTARKSTGGKA (trimethyl-lysine at 9 (K9me3)) [H3(1–15)K9me3 peptide]	binding result [2]: binds
–	B1	binding result [3]: binds
